Reference: patent US20220241369A1, “COMPOSITIONS AND METHODS OF MODULATING INFLAMMATION” (La Jolla Institute for Allergy and Immunology, priority 2018, published 2022)
Where a chain is given by its changes, count along the chain named.

Assays:
[1] = system: NIH/3T3 murine fibroblasts and primary intestinal fibroblasts; test: HRF secretion into culture supernatant, western blot, fibroblasts; format: cell-based, mouse; settings: stimulated overnight, 20 or 100 ng/ml
Experimental: (§1) FIGS. 4A-4C show HRF is secreted by various cells. CMT-93 murine intestinal epithelial cells (FIG. 4A) and NIH/3T3 murine fibroblasts (FIG. 4B) and Raw264.7 murine macrophages (FIG. 4C) were stimulated overnight with low (20 ng/ml) and high (100 ng/mL) concentrations of various cytokines. HRF secreted into culture supernatants was detected by western blotting. Med and US denote medium only and supernatant from unstimulated cells, respectively. −DTT and +DTT indicate SDS gels were run under non-reducing and reducing conditions, respectively. Gel portions of containing the 23 kDa HRF monomer are shown except that a larger portion of the non-reducing gel is shown in panel C. Arrow indicates the position of HRF dimer, which disappeared under reducing conditions.
The following cell lines were cultured in DMEM plus 10% FCS except for U-937 cells which were cultured in RPMI1640 plus 10% FCS: CMT-93 mouse and Caco-2 (with 20% FCS) human intestinal epithelial cell lines; NIH/3T3 mouse fibroblast line; Raw 264.7 mouse and U-937 human macrophage lines; BEAS-2B human bronchial epithelial cell line; 293T human embryonic kidney cell line (obtained from ATCC, Manassas, Va., except for NIH/3T3, which was provided by S. A. Aaronson, NIH). Fibroblast-like stromal cells were cultured from small intestines of BALB/c mice in DMEM/10% FBS. […]

[2] = system: Raw264.7 murine macrophages; test: HRF secretion into culture supernatant, western blot, macrophages; format: cell-based, mouse; settings: stimulated overnight, 20 or 100 ng/ml
Experimental: as §1
(§2) The following cell lines were cultured in DMEM plus 10% FCS except for U-937 cells which were cultured in RPMI1640 plus 10% FCS: CMT-93 mouse and Caco-2 (with 20% FCS) human intestinal epithelial cell lines; NIH/3T3 mouse fibroblast line; Raw 264.7 mouse and U-937 human macrophage lines; BEAS-2B human bronchial epithelial cell line; 293T human embryonic kidney cell line (obtained from ATCC, Manassas, Va., except for NIH/3T3, which was provided by S. A. Aaronson, NIH). Fibroblast-like stromal cells were cultured from small intestines of BALB/c mice in DMEM/10% FBS. CD4^+ T and B cells were purified from mouse spleens using BD IMag™ Mouse CD4 and B cells enrichment set-DM. Low-density bone-marrow cells were cultured in the presence of 100 ng/ml of stem cell factor (PeproTech) and 100 ng/ml of FLT-3 ligand (R&D Systems) for 4 days, and with 10 ng/mL of IL-5 (R&D Systems) thereafter for 10 days to obtain bone marrow-derived eosinophils (44). Bone marrow cells were cultured in the presence of 20 ng/ml of GM-CSF for 6 days and adherent cells were collected as bone marrow-derived macrophages. Non-adherent cells were further cultured with 5 ng/ml GM-CSF and the non-adherent cells were collected as bone marrow-derived dendritic cells. […]

[3] = system: BEAS-2B human bronchial epithelial cells; test: HRF secretion, western blot, BEAS-2B; format: cell-based; settings: combination of HDM and cytokine, 24 h
From the text: As lung epithelial cells are exposed to the environment, HRF secretion was studied using BEAS-2B human bronchial epithelial cells. A small amount of HRF was secreted constitutively, but house dust mite allergens induced the secretion of high-molecular-weight HRF species (HMW-HRFs). Various cytokines including epithelial derived cytokines as well as Th2 cytokines and proinflammatory cytokines further enhanced HDM-induced secretion of HMW-HRFs.
Cultured cells were scraped and treated with adenosine and ATP, which should be abundantly present in inflammatory or injured tissues. These conditions induced secretion of HRF monomer, dimer and HMW-HRFs like stimulation with HDM plus cytokines.
Culture supernatants were analyzed by SDS-PAGE under nonreducing (−DTT) and reducing (+DTT) conditions, followed by western blotting for HRF probing. HDM-induced HRF secretion was enhanced not only by Th2 cytokines (IL-4, IL-5, and IL-13), but also by epithelial derived cytokines (IL-25, IL-33, and TSLP) and proinflammatory cytokines (IL-1beta, IL-6 and TNF). med, medium alone; US, unstimulated; HDM, house dust mite; CR, cockroach; RW, ragweed; Af, Aspergillus fumigatus. Arrowhead, HRF monomer.

[4] = system: CMT-93 murine intestinal epithelial cells; test: HRF secretion into culture supernatant, western blot, CMT-93; format: cell-based, mouse; settings: stimulated overnight, 20 or 100 ng/ml
Experimental: as §1, §2

[5] = system: OVA-induced allergic diarrhea; test: OIT desensitization model, hourly increasing amounts of OVA for 3 days; format: in vivo, mouse
Experimental: (§3) In a classical tolerance model, five daily oral administrations of 1 mg OVA from day −11 to day −7 were performed before i.p. OVA/alum-sensitization on days 0 and 7 and followed by ig. OVA (30 mg) gavages on days 14, 21, 28 and 35. In another OIT model, mice were i.d. sensitized with OVA (750 μg) on days 0, 13 and 27 and followed by 9 oral OVA (60 mg) challenges from day 44 to day 60 to induce diarrhea in all mice. Then mice were i.g. treated with hourly increasing amounts of OVA on day 100 (0.1, 0.2, 0.5 mg), on day 101 (1, 2, 5 mg) and on day 102 (10, 20, 60 mg).
Finally, HRF-reactive IgE and HRF-reactive IgG were monitored in another desensitization model, which mimicked the human OIT more faithfully. OVA-sensitized mice were first rendered allergic by OVA challenges and then received hourly increasing amounts of OVA for 3 consecutive days (OIT) after a resting period (FIG. 7D). […] Levels of HRF-reactive IgG and OVA-specific IgG were not changed by OIT (FIG. 7E). In non-sensitized mice, HRF-reactive IgE and HRF-reactive IgG levels were not changed by OIT and OVA-specific IgE and IgG levels were extremely low irrespective of OIT treatment (data not shown).

[6] = system: c-Kit+ mucosal mast cells of the small intestine; test: Ex vivo mast cell activation test (MCAT); format: cell-based, mouse; settings: 15 min at 37° C.
Experimental: FIGS. 2A-2C show mucosal mast cells can be activated ex vivo by antigen. Cells were released with EDTA from small intestines of non-sensitized/OVA challenged (Cont) or OVA-sensitized/OVA-challenged (OVA) mice, and mononuclear cells were selected. The cells were incubated for 15 min at 37° C. with OVA or anti-IgE antibody, and activation of Kit^+ mast cells was measured by flow cytometry (FIG. 2A, FIG. 2B). **, ***: p<0.01, p<0.001 by Student's t-test. (n=2; a representative of 2 independent experiments) (FIG. 2C) Mucosal cells derived from OVA-sensitized/OVA-challenged mice were stimulated with PBS (n=4), OVA (10 ng/ml, n=4) or HRF dimer (100 μg/ml, n=2) in the presence or absence of HRF-2CA (300 μg/ml).
FIGS. 11A-11C show HRF dimer, but not monomer can activate mast cells. (FIG. 11A) Purified dimeric and monomeric HRF expressed in E. coli. Recombinant HRF-[…] was purified first by Histrap HP and then Sephacryl S-200 HR16/60. Two peaks were observed by Sephacryl size fractionation. The first (Fr1) and second (Fr3) peaks contained dimer and monomer, respectively, as shown by SDS-PAGE. Fr1 and Fr3 were used for mast cell stimulation. (FIG. 11B) Cells were released with 10 mM EDTA from small intestines of OVA-sensitized/OVA-challenged mice, and mononuclear cells were selected. The cells were incubated for 15 min at 37° C. with mHRF monomer or dimer (100 μg/ml), or PBS, and Kit^+ mast cell activation (LAMP-1^+) was measured by flow cytometry (n=3). (FIG. 11C) Control experiments indicate an excellent specificity of the assay for HRF multimers. HRF-2CA (2CA) was used as a monomer control (n=2 for each concentration). Note that total concentrations of the 1:9 mixture of dimer:monomer gave almost the same luminescence values as did ten-fold less concentrations of dimer.
Twenty-four hours after the last OVA challenge, mice were sacrificed and small intestines (0.5-15 cm from stomach) were collected. The intestinal tissues were opened longitudinally and washed with PBS. Then, the tissues were incubated with 10 mM EDTA-PBS for 30 min at 37° C. After incubation, the tissues were transferred to 30 ml PBS in 50 ml tubes and vigorously shaken. After washed, the cells were resuspended in 40% Percoll solution and slowly loaded on the top of 75% Percoll solution. The cells were then centrifuged (2000 rpm, 20 min) and lymphocytes were collected. The cells were once centrifuged and resuspended in Tyrode's buffer. Abs (Biotin-anti-CD4 mAb (clone RM4-5), Biotin-anti-CD8 mAb (clone 53-6.7), Biotin-anti-B220 mAb (clone RA3-6B2), Biotin-anti-CD326 mAb (clone G8.8), PE-anti-CD117 (clone 2B8), AlexaFluor647-anti-LAMP-1 mAb (clone 1D4B)) (Biolegend) were added and cells were then stimulated with OVA, anti-IgE (clone RME-1, BioLegend) and recombinant dimeric murine HRF for 15 min at 37° C. After activation, cells were washed and incubated with FITC-streptavidin (Catalog #405202, Biolegend) for 30 min at 4° C. LAMP-1 expression was detected using FACS Calibur. Data were analyzed using FlowJo software.

[7] = system: OVA-induced allergic diarrhea; test: Classical tolerance model, oral OVA before sensitization; format: in vivo, mouse
Experimental: as §3
Applicant then tested the possibility provoked by the above human data that the level of HRF-reactive IgE is kept low in a desensitized state, using two murine models. In a classic tolerance model (30), five daily oral administrations of 1 mg OVA from day −11 to day −7 (OIT) prevented the OVA-induced development of allergic diarrhea in OVA-sensitized mice (FIG. 7B). By contrast, without oral pretreatment, all OVA-sensitized mice developed allergic diarrhea.

[8] = system: mouse bone marrow-derived mast cells (BMMCs); test: IL-13 production of IgE-sensitized BMMCs stimulated with TNP3-BSA and mHRF dimer; format: cell-based; settings: IL-13 ELISA
Experimental: (§4) FIGS. 33A-33B show HRF dimers enhance IgE/antigen-induced activation of mast cells and basophils. […] IL-13 in culture supernatants was quantified by ELISA. […] Then, HDM allergen (Dermatophagoides farinae at 10 ng/ml) was added to the cells together with FITC-anti-CD63 and APC-anti-CCR3 for 15 min. Expression of CD63 (activation marker) and CCR3 (basophil marker) was analyzed by flow cytometry.

[9] = system: basophils; test: Basophil activation (CD63) in blood of an HDM-sensitized asthmatic; format: cell-based, human; settings: 10 μg/ml, 30 min, then HDM allergen 10 ng/ml for 15 min
Experimental: as §4

[10] = cells from allergic (OVA-sensitized/OVA-challenged) mice

## IL-1β
[1]
  HRF secretion: enhanced
[2]
  secretion of HRF monomer: increased
[3]
  HDM-induced HRF secretion: enhanced
[4]
  HRF secretion: strongly induced

B1: OVA: food allergen of the murine model, also given orally as OIT (protein, UniProt P01012 2-386, looked up)
Ovalbumin: GSIGAASMEFCFDVFKELKVHHANENIFYCPIAIMSALAMVYLGAKDSTRTQINKVVRFDKLPGFGDSIEAQCGTSVNVHSSLRDILNQITKPNDVYSFSLASRLYAEERYPILPEYLQCVKELYRGGLEPINFQTAADQARELINSWVESQTNGIIRNVLQPSSVDSQTAMVLVNAIVFKGLWEKAFKDEDTQAMPFRVTEQESKPVQMMYQIGLFRVASMASEKMKILELPFASGTMSMLVLLPDEVSGLEQLESIINFEKLTEWTSSNVMEERKIKVYLPRMKMEEKYNLTSVLMAMGITDVFSSSANLSGISSAESLKISQAVHAAHAEINEAGREVVGSAEAGVDAASVSEEFRADHPFLFCIKHIATNAVLFFGRCVSP
[5]; before vs after OIT
  levels of HRF-reactive IgE: lowered
  levels of HRF-reactive IgG and OVA-specific IgG: not changed
  levels of OVA-specific IgE: did not change
[5]; hourly increasing amounts for 3 consecutive days
  OVA-sensitized/OVA-challenged mice desensitized to the final gavage dose of 60 mg: 80%
[6]; [10]
  activation (LAMP-1+) of mucosal mast cells by the substance: further activated
[6]; cells from non-sensitized mice
  activation (LAMP-1+) of mucosal mast cells by the substance: few mast cells were activated
[7]; five daily oral administrations of 1 mg from day -11 to day -7
  OVA-induced development of allergic diarrhea: prevented
[7]; tolerance-induced vs non-tolerant and non-sensitized mice
  HRF-reactive IgE levels: significantly reduced

B2: HRF dimer: recombinant disulfide-linked dimer of mouse histamine releasing factor (protein, UniProt P63028 1-172, looked up)
Translationally-controlled …: MIIYRDLISHDELFSDIYKIREIADGLCLEVEGKMVSRTEGAIDDSLIGGNASAEGPEGEGTESTVVTGVDIVMNHHLQETSFTKEAYKKYIKDYMKSLKGKLEEQKPERVKPFMTGAAEQIKHILANFNNYQFFIGENMNPDGMVALLDYREDGVTPFMIFFKDGLEMEKC
modifications: disulfide-linked dimer
notes: recombinant disulfide-linked dimer of mouse histamine releasing factor
[6]; [10]
  activation (LAMP-1+) of mucosal mast cells by the substance: can activate
[6]; cells from allergic (OVA-sensitized/OVA-challenged) mice, listed as dimeric HRF
  activation (LAMP-1+) of mucosal mast cells by the substance: activated
[8]
  IgE/antigen-induced activation of mast cells: enhance

B3: hHRF dimer: human HRF dimer (protein)
chain: B2 Translationally-controlled … with L13M, A42N, V67I, L99I, K107R, N130K, F159Y
[9]
  IgE/antigen-induced activation of basophils (CD63): enhance
